Experimental data: US20140274782A1, “AFFINITY REAGENTS AND METHODS FOR DETECTION, PURIFICATION, AND PROTEOMIC ANALYSIS OF METHYLATED PROTEINS” (The Board of Trustees of the Leland Stanford Junior …, priority 2013, published 2014)

T1: G9a and GLP (Homo sapiens, UniProt Q96KQ7+Q9H9B1)
T1 sequence (Q96KQ7 2-1210 limits assumed): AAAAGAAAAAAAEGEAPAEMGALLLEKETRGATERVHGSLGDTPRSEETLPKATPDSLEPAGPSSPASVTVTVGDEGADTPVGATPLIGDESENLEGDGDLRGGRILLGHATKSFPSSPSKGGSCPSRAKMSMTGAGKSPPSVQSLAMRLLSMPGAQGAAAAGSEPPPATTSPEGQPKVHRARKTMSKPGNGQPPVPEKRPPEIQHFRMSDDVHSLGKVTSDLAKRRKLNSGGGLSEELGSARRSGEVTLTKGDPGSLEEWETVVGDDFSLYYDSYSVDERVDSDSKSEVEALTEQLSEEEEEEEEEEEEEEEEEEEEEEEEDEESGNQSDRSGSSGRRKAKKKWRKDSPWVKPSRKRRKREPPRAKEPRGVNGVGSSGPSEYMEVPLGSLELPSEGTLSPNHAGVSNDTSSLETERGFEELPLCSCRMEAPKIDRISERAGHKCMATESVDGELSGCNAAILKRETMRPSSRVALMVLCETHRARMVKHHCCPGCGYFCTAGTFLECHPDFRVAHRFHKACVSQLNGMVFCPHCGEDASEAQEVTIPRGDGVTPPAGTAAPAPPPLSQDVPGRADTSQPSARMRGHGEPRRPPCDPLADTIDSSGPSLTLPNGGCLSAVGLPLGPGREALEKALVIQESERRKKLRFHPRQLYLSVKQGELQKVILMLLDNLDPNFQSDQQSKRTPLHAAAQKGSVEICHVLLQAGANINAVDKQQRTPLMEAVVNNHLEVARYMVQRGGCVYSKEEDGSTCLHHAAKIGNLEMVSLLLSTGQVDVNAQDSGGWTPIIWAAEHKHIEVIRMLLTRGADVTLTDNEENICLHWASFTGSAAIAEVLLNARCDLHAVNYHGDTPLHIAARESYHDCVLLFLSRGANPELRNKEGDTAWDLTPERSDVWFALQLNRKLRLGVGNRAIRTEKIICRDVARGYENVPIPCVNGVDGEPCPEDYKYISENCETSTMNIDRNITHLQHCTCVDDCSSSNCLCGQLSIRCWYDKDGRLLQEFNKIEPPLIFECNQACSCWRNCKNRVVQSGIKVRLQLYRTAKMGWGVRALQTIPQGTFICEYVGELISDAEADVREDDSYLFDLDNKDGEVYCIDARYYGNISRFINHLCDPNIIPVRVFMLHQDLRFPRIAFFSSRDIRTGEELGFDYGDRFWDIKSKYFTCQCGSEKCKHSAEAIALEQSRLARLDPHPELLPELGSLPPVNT
T1 sequence (Q9H9B1 2-1298 limits assumed): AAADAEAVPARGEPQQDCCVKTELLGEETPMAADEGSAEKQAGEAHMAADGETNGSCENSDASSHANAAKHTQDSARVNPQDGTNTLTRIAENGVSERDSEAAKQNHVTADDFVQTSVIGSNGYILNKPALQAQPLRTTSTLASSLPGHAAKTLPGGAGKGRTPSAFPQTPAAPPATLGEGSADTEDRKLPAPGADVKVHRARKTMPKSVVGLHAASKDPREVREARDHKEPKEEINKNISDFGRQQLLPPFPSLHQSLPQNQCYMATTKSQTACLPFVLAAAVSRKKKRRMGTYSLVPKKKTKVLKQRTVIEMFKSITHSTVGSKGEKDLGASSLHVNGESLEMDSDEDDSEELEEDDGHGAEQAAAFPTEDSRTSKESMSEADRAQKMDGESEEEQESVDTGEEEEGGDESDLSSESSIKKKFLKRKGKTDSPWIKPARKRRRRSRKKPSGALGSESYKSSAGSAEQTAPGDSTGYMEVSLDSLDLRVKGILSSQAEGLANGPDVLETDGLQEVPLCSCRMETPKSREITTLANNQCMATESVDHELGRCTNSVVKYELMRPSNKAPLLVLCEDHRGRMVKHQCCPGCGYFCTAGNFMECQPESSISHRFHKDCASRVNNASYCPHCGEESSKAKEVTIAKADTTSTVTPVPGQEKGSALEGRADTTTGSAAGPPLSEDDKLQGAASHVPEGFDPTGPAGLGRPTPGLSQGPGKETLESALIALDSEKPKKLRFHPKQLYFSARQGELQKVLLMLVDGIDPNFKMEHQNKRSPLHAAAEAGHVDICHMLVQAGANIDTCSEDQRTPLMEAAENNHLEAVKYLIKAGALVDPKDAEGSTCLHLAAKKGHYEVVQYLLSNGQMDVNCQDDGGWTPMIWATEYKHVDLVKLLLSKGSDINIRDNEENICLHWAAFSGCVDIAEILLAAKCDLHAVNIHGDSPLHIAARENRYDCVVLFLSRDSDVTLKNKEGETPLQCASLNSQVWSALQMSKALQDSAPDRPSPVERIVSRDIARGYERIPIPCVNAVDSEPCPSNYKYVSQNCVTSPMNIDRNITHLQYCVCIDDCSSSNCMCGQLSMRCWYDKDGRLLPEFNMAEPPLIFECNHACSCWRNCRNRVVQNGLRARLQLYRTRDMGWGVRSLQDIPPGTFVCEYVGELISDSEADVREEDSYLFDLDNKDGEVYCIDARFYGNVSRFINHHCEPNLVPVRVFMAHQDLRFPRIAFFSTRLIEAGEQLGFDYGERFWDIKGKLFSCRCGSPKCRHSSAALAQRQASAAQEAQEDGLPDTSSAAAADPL


How the values were obtained:
3×MBT domain of L3MBTL1 = assay: Triple SILAC pull-down, 3xMBT/3xMBTD355N ratio (cytoplasmic, nuclear and chromatin fractions of 293T cells); type: binding, human; settings: SILAC ratio, pull-down 3xMBT vs 3xMBTD355N; for 3xMBT/D355N UNC Heavy: experiment with UNC0638 in heavy SILAC media; for 3xMBT/D355N UNC Light: experiment with UNC0638 in light SILAC media;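 on all read-outs here: proteins quantified with MaxQuant, requiring at least two unique peptides and quantification in both label directions, normalized to the mean of proteins from a digested loading control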
G9a and GLP = biological target: T1, G9a and GLP; assay: Triple SILAC pull-down after UNC0638 treatment of 293T cells, DMSO/UNC0638 ratio of protein captured by 3×MBT; type: cell-based; set-up: endogenous in cells; host or cells: HEK 293T; settings: for Relative to UNC0638 UNC Heavy / Relative to UNC0638 UNC Light: SILAC ratio DMSO/UNC0638 of protein pulled down with 3xMBT; for Relative to UNC0638 UNC Heavy: UNC0638 in heavy SILAC media; for Relative to UNC0638 UNC Light: UNC0638 in light SILAC media; for Relative to UNC0638 Average: average of UNC Light and UNC Heavy experiments;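 on all read-outs here: mass spectrometry (Q-Exactive) SILAC quantitation, DMSO/UNC0638 ratio computed after subtracting 3×MBTD355N mutant pull-down background, only proteins with at least twofold 3×MBT over mutant signal considered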

| Molecule | Relative to UNC0638 UNC Heavy (G9a and GLP) [log base 2] | Relative to UNC0638 UNC Light (G9a and GLP) [log base 2] | Relative to UNC0638 Average (G9a and GLP) [log base 2] | 3xMBT/D355N UNC Heavy (3×MBT domain of L3MBTL1) [log base 2] | 3xMBT/D355N UNC Light (3×MBT domain of L3MBTL1) [log base 2] |
| --- | --- | --- | --- | --- | --- |
| HNRNPH1 (protein, UniProt P31943 1-449, looked up) Heterogeneous nuclear …: MMLGTEGGEGFVVKVRGLPWSCSADEVQRFFSDCKIQNGAQGIRFIYTREGRPSGEAFVELESEDEVKLALKKDRETMGHRYVEVFKSNNVEMDWVLKHTGPNSPDTANDGFVRLRGLPFGCSKEEIVQFFSGLEIVPNGITLPVDFQGRSTGEAFVQFASQEIAEKALKKHKERIGHRYIEIFKSSRAEVRTHYDPPRKLMAMQRPGPYDRPGAGRGYNSIGRGAGFERMRRGAYGGGYGGYDDYNGYNDGYGFGSDRFGRDLNYCFSGMSDHRYGDGGSTFQSTTGHCVHMRGLPYRATENDIYNFFSPLNPVRVHIEIGPDGRVTGEADVEFATHEDAVAAMSKDKANMQHRYVELFLNSTAGASGGAYEHRYVELFLNSTAGASGGAYGSQMMGGMGLSNQSSYGGPASQQLSGGYGGGYGGQSSMSGYDQVLQENSSDFQSNIA | 0.24 | 0.19 | 0.21 | 1.85 | 2.27 |
| HPSE2 (protein, UniProt Q8WWQ2 42-592, looked up) Inactive heparanase-2: GDRRPLPVDRAAGLKEKTLILLDVSTKNPVRTVNENFLSLQLDPSIIHDGWLDFLSSKRLVTLARGLSPAFLRFGGKRTDFLQFQNLRNPAKSRGGPGPDYYLKNYEDDIVRSDVALDKQKGCKIAQHPDVMLELQREKAAQMHLVLLKEQFSNTYSNLILTARSLDKLYNFADCSGLHLIFALNALRRNPNNSWNSSSALSLLKYSASKKYNISWELGNEPNNYRTMHGRAVNGSQLGKDYIQLKSLLQPIRIYSRASLYGPNIGRPRKNVIALLDGFMKVAGSTVDAVTWQHCYIDGRVVKVMDFLKTRLLDTLSDQIRKIQKVVNTYTPGKKIWLEGVVTTSAGGTNNLSDSYAAGFLWLNTLGMLANQGIDVVIRHSFFDHGYNHLVDQNFNPLPDYWLSLLYKRLIGPKVLAVHVAGLQRKPRPGRVIRDKLRIYAHCTNHHNHNYVRGSITLFIINLHRSRKKIKLAGTLRDKLVHQYLLQPYGQEGLKSKSVQLNGQPLVMVDDGTLPELKPRPLRAGRTLVIPPVTMGFYVVKNVNALACRYR |  | 4.14 | 4.14 | −0.14 | 3.81 |

Continued, in another order:

| Relative to UNC0638 UNC Heavy (G9a and GLP) [log base 2] | Relative to UNC0638 UNC Light (G9a and GLP) [log base 2] | Relative to UNC0638 Average (G9a and GLP) [log base 2] | Molecule | 3xMBT/D355N UNC Heavy (3×MBT domain of L3MBTL1) [log base 2] | 3xMBT/D355N UNC Light (3×MBT domain of L3MBTL1) [log base 2] |
| --- | --- | --- | --- | --- | --- |
| 0.26 | 0.18 | 0.22 | LIG3 (protein, UniProt P49916 43-1009, looked up) DNA ligase 3: LLHGHPLFLRRKPVLSFQGSHLRSRATYLVFLPGLHVGLCSGPCEMAEQRFCVDYAKRGTAGCKKCKEKIVKGVCRIGKVVPNPFSESGGDMKEWYHIKCMFEKLERARATTKKIEDLTELEGWEELEDNEKEQITQHIADLSSKAAGTPKKKAVVQAKLTTTGQVTSPVKGASFVTSTNPRKFSGFSAKPNNSGEAPSSPTPKRSLSSSKCDPRHKDCLLREFRKLCAMVADNPSYNTKTQIIQDFLRKGSAGDGFHGDVYLTVKLLLPGVIKTVYNLNDKQIVKLFSRIFNCNPDDMARDLEQGDVSETIRVFFEQSKSFPPAAKSLLTIQEVDEFLLRLSKLTKEDEQQQALQDIASRCTANDLKCIIRLIKHDLKMNSGAKHVLDALDPNAYEAFKASRNLQDVVERVLHNAQEVEKEPGQRRALSVQASLMTPVQPMLAEACKSVEYAMKKCPNGMFSEIKYDGERVQVHKNGDHFSYFSRSLKPVLPHKVAHFKDYIPQAFPGGHSMILDSEVLLIDNKTGKPLPFGTLGVHKKAAFQDANVCLFVFDCIYFNDVSLMDRPLCERRKFLHDNMVEIPNRIMFSEMKRVTKALDLADMITRVIQEGLEGLVLKDVKGTYEPGKRHWLKVKKDYLNEGAMADTADLVVLGAFYGQGSKGGMMSIFLMGCYDPGSQKWCTVTKCAGGHDDATLARLQNELDMVKISKDPSKIPSWLKVNKIYYPDFIVPDPKKAAVWEITGAEFSKSEAHTADGISIRFPRCTRIRDDKDWKSATNLPQLKELYQLSKEKADFTVVAGDEGSSTTGGSSEENKGPSGSAVSRKAPSKPSASTKKAEGKLSNSNSKDGNMQTAKPSAMKVGEKLATKSSPVKVGEKRKAADETLCQTKVLLDIFTGVRLYLPPSTPDFSRLRRYFVAFDGDLVQEFDMTSATHVLGSRDKNPAAQQVSPEWIWACIRKRRLVAPC | 2.43 | 2.16 |
| 0.12 | 0.31 | 0.21 | RALY (protein, UniProt Q9UKM9 2-306, looked up) RNA-binding protein Raly: SLKLQASNVTNKNDPKSINSRVFIGNLNTALVKKSDVETIFSKYGRVAGCSVHKGYAFVQYSNERHARAAVLGENGRVLAGQTLDINMAGEPKPDRPKGLKRAASAIYSGYIFDYDYYRDDFYDRLFDYRGRLSPVPVPRAVPVKRPRVTVPLVRRVKTNVPVKLFARSTAVTTSSAKIKLKSSELQAIKTELTQIKSNIDALLSRLEQIAAEQKANPDGKKKGDGGGAGGGGGGGGSGGGGSGGGGGGGSSRPPAPQENTTSEAGLPQGEARTRDDGDEEGLLTHSEEELEHSQDTDADDGALQ | 1.15 | 3.37 |
